In the supplement of paper PMC10567573:

B1: FAM164C (parent)
chain: YPHCTGISQQDPESDSQGQGNGLF

Variants of: B1
Experiment: protein stability index of a GFP-peptide fusion (GPS, HEK-293T) (PSI 1-6); higher = more stable
Conditions: c terminus: a fixed tail appended
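Also: lentivirally expressed fusions sorted by FACS into six bins by GFP to DsRed ratio, PSI derived from sequencing read proportions per bin multiplied by bin number.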

Variant | protein stability index
YPHCTVISQQDPESDSQGQGNGLF | 4.17
YPHCTDISQQDPESDSQGQGNGLF | 4.23
YPHCTHISQQDPESDSQGQGNGLF | 3.62
YPHCTFISQQDPESDSQGQGNGLF | 3.01
YPHCTLISQQDPESDSQGQGNGLF | 3.25
YPHCTEISQQDPESDSQGQGNGLF | 4.46
YPHCTYISQQDPESDSQGQGNGLF | 2.77
YPHCTAISQQDPESDSQGQGNGLF | 3.53
YPHCTSISQQDPESDSQGQGNGLF | 3.82
YPHCTPISQQDPESDSQGQGNGLF | 2.25
YPHCTGISQQDPESDSQGQNNGLF | 3.48
YPHCTGISQQDPESDSQGQMNGLF | 3.9
YPHCTGISQQDPESDSQGQENGLF | 4.33
YPHCTGISQQDPESDSQGQKNGLF | 3.66
YPHCTGISQQDPESDSQGQDNGLF | 4.39
YPHCTGISQQDPESDSQGQYNGLF | 2.03
YPHCTGISQQDPESDSDGQGNGLF | 3.26
YPHCTGISQQDPESDSYGQGNGLF | 3.02
YPHCTGISQQDPESDSKGQGNGLF | 3.51
YPHCTGISQQDPESDSFGQGNGLF | 2.81
YPHCTGISQQDPESYSQGQGNGLF | 3.23
YPHCTGISQQDPESCSQGQGNGLF | 2.79
YPHCTGISQQDPESSSQGQGNGLF | 3.73
YPHCTGISQQDPESHSQGQGNGLF | 3.66

Variant | protein stability index
YPHCTGISQQDPESTSQGQGNGLF | 2.95
YPHCTGISQQDPESWSQGQGNGLF | 2.63
YPHCTGISQQDPESASQGQGNGLF | 3.53
YPHCTGISQQDPESDIQGQGNGLF | 3.1
YPHCTGISQQDPESDAQGQGNGLF | 3.71
YPHCTGISQQDPESDCQGQGNGLF | 3.35
YPHCTGISQQDPESDDQGQGNGLF | 4.24
YPHCTGISQQDPESDHQGQGNGLF | 3.78
YPHCTGISQQDPESDYQGQGNGLF | 3.44
YPHCTGISQQDPESDLQGQGNGLF | 2.74
YPHCTGISQQDPESDEQGQGNGLF | 4.16
YPHCTGISQQDPESDGQGQGNGLF | 3.71
YPHCTGISQQDPESDSQGQGNYLF | 3.03
YPHCTGISQQDPESDSQGQGNKLF | 3.96
YPHCTGISQQDPESDSQGQGNLLF | 2.87
YPHCTGISQQDPESDSQGQGNSLF | 3.57
YPHCTGISQQDPESDSQGQGNVLF | 3.73
YPHCTGISQQDPESDSQGQGNELF | 3.76
YPHCTGISQQDPESDSQGQGNDLF | 4.03
YPHCTGISQYDPESDSQGQGNGLF | 3.07
YPHCTGISQKDPESDSQGQGNGLF | 4
YPHCTGISQDDPESDSQGQGNGLF | 3.68
YPHCTGISQPDPESDSQGQGNGLF | 3.78
YPHCTGISQFDPESDSQGQGNGLF | 3.19

Variant | protein stability index
YTHCTGISQQDPESDSQGQGNGLF | 3.35
YEHCTGISQQDPESDSQGQGNGLF | 5.31
YMHCTGISQQDPESDSQGQGNGLF | 4.07
YAHCTGISQQDPESDSQGQGNGLF | 3.57
YNHCTGISQQDPESDSQGQGNGLF | 4.54
YDHCTGISQQDPESDSQGQGNGLF | 5.09
YHHCTGISQQDPESDSQGQGNGLF | 2.9
YIHCTGISQQDPESDSQGQGNGLF | 2.83
YQHCTGISQQDPESDSQGQGNGLF | 3.58
YKHCTGISQQDPESDSQGQGNGLF | 4.51
YGHCTGISQQDPESDSQGQGNGLF | 4.47
YPGCTGISQQDPESDSQGQGNGLF | 3.39
YPKCTGISQQDPESDSQGQGNGLF | 3.9
YPSCTGISQQDPESDSQGQGNGLF | 3.07
YPICTGISQQDPESDSQGQGNGLF | 4.18
YPECTGISQQDPESDSQGQGNGLF | 4.58
YPMCTGISQQDPESDSQGQGNGLF | 3.46
YPHCTGISMQDPESDSQGQGNGLF | 3.49
YPHCTGISCQDPESDSQGQGNGLF | 3.43
YPHCTGISVQDPESDSQGQGNGLF | 3.19
YPHCTGISIQDPESDSQGQGNGLF | 3.71
YPHCTGISWQDPESDSQGQGNGLF | 2.48
YPHCTGISLQDPESDSQGQGNGLF | 2.98
YPHCTGISPQDPESDSQGQGNGLF | 3.67

Variant | protein stability index
YPHCTGISYQDPESDSQGQGNGLF | 3.11
YPHCTGISRQDPESDSQGQGNGLF | 3.68
YPHCTGISEQDPESDSQGQGNGLF | 3.89
YPHCTGISSQDPESDSQGQGNGLF | 3.97
YPHCTGISTQDPESDSQGQGNGLF | 3.63
YPHCTGISKQDPESDSQGQGNGLF | 3.42
YPHCTGISQQDPFSDSQGQGNGLF | 2.44
YPHCTGISQQDPKSDSQGQGNGLF | 3.28
YPHCTGISQQDPWSDSQGQGNGLF | 1.9
YPHCTGISQQDPASDSQGQGNGLF | 3.46
YPHCTGISQQDPRSDSQGQGNGLF | 2.93
YPHCTGISQQDPMSDSQGQGNGLF | 3.21
YPHCTGISQQDPISDSQGQGNGLF | 3.21
YPHCTGISQQDPVSDSQGQGNGLF | 3.66
YPHCTGISQQDPDSDSQGQGNGLF | 3.87
YPHCTGISQQDPESDSQGQGNGMF | 4.21
YPHCTGISQQDPESDSQGQGNGVF | 3.87
YPHCTGISQQDPESDSQGQGNGEF | 5.27
YPHCTGISQQDPESDSQGQGNGWF | 2.97
YPHCTGISQQDPEEDSQGQGNGLF | 3.84
YPHCTGISQQDPEQDSQGQGNGLF | 3.93
YPHCTGISQQDPETDSQGQGNGLF | 3.71
YPHCTGISQQDPEFDSQGQGNGLF | 2.73
YPHCTGISQQDPEPDSQGQGNGLF | 4.28

Variant | protein stability index
YPHCTGISQQDPEKDSQGQGNGLF | 4.23
YPHCTGISQQDPESDSQGLGNGLF | 3.3
YPHCTGISQQDPESDSQGRGNGLF | 3.51
YPHCTGISQQDPESDSQGNGNGLF | 3.66
YPHCTGISQQDPESDSQGWGNGLF | 2.75
YPHCTGISQQDPESDSQGFGNGLF | 2.88
YPHCTGISQQDPESDSQGHGNGLF | 3.64
YPHCTGISQQDPESDSQGIGNGLF | 3.26
YPHCTGISQQDPESDSQGAGNGLF | 3.87
YPHCTGISQQDPESDSQGDGNGLF | 4.1
YPHCTGISQQDPESDSQGQGVGLF | 3.54
YPHCTGISQQDPESDSQGQGQGLF | 4.07
YPHCTGISQQDPESDSQGQGAGLF | 3.83
YPHCTGISQQDPESDSQGQGLGLF | 3.41
YPHCTGISQQDPESDSQGQGTGLF | 4.04
YPHCTGISQQDPESDSQGQGSGLF | 3.78
HPHCTGISQQDPESDSQGQGNGLF | 4.85
IPHCTGISQQDPESDSQGQGNGLF | 5.14
APHCTGISQQDPESDSQGQGNGLF | 5.44
WPHCTGISQQDPESDSQGQGNGLF | 4.43
RPHCTGISQQDPESDSQGQGNGLF | 4.63
LPHCTGISQQDPESDSQGQGNGLF | 5.44
TPHCTGISQQDPESDSQGQGNGLF | 5.38
YPHCGGISQQDPESDSQGQGNGLF | 2.93

Variant | protein stability index
YPHCQGISQQDPESDSQGQGNGLF | 3.89
YPHCNGISQQDPESDSQGQGNGLF | 3.32
YPHCCGISQQDPESDSQGQGNGLF | 1.9
YPHCDGISQQDPESDSQGQGNGLF | 4.6
YPHCIGISQQDPESDSQGQGNGLF | 3.34
YPHCLGISQQDPESDSQGQGNGLF | 2.35
YPHCAGISQQDPESDSQGQGNGLF | 3.46
YPHCWGISQQDPESDSQGQGNGLF | 1.68
YPHCYGISQQDPESDSQGQGNGLF | 3.17
YPHCFGISQQDPESDSQGQGNGLF | 2.32
YPHCPGISQQDPESDSQGQGNGLF | 3.25
YPHCMGISQQDPESDSQGQGNGLF | 2.23
YPHNTGISQQDPESDSQGQGNGLF | 4.25
YPHPTGISQQDPESDSQGQGNGLF | 3.37
YPHDTGISQQDPESDSQGQGNGLF | 5.02
YPHYTGISQQDPESDSQGQGNGLF | 3.17
YPHFTGISQQDPESDSQGQGNGLF | 3.58
YPHRTGISQQDPESDSQGQGNGLF | 4.06
YPHGTGISQQDPESDSQGQGNGLF | 3.5
YPHMTGISQQDPESDSQGQGNGLF | 4.36
YPHLTGISQQDPESDSQGQGNGLF | 4.36
YPHCTGISQQDPESDSQFQGNGLF | 2.54
YPHCTGISQQDPESDSQMQGNGLF | 3.19
YPHCTGISQQDPESDSQYQGNGLF | 3

Variant | protein stability index
YPHCTGISQQDPESDSQKQGNGLF | 3.5
YPHCTGISQQDPESDSQAQGNGLF | 3.83
YPHCTGITQQDPESDSQGQGNGLF | 3.74
YPHCTGIVQQDPESDSQGQGNGLF | 3.73
YPHCTGIWQQDPESDSQGQGNGLF | 1.84
YPHCTGIGQQDPESDSQGQGNGLF | 3.52
YPHCTGIIQQDPESDSQGQGNGLF | 3.59
YPHCTGIMQQDPESDSQGQGNGLF | 3.33
YPHCTGIKQQDPESDSQGQGNGLF | 4.15
YPHCTGIEQQDPESDSQGQGNGLF | 4.17
YPHCTGIHQQDPESDSQGQGNGLF | 3.65
YPHCTGISQQEPESDSQGQGNGLF | 4.2
YPHCTGISQQLPESDSQGQGNGLF | 3.37
YPHCTGISQQIPESDSQGQGNGLF | 3.1
YPHCTGISQQNPESDSQGQGNGLF | 3.62
YPHCTGISQQCPESDSQGQGNGLF | 3.15
YPHCTGISQQKPESDSQGQGNGLF | 3.85
YPHCTGISQQFPESDSQGQGNGLF | 2.96
YPHCTGISQQPPESDSQGQGNGLF | 3.85
YPHCTGISQQDEESDSQGQGNGLF | 4.08
YPHCTGISQQDRESDSQGQGNGLF | 3.18
YPHCTGISQQDWESDSQGQGNGLF | 3.27
YPHCTGISQQDIESDSQGQGNGLF | 3.51
YPHCTGISQQDVESDSQGQGNGLF | 3.96

Variant | protein stability index
YPHCTGASQQDPESDSQGQGNGLF | 4.04
YPHCTGRSQQDPESDSQGQGNGLF | 3.94
YPHCTGWSQQDPESDSQGQGNGLF | 1.51
YPHCTGPSQQDPESDSQGQGNGLF | 4.18
YPHCTGKSQQDPESDSQGQGNGLF | 3.56
YPHCTGCSQQDPESDSQGQGNGLF | 3.56
YPHCTGVSQQDPESDSQGQGNGLF | 3.82
YPHCTGESQQDPESDSQGQGNGLF | 4.68
YPHCTGSSQQDPESDSQGQGNGLF | 3.86
YPHCTGLSQQDPESDSQGQGNGLF | 3.9
YPHCTGFSQQDPESDSQGQGNGLF | 2.21
YPHCTGHSQQDPESDSQGQGNGLF | 4
YPHCTGISQQDPESDSQGQGNGLP | 4.64
YPHCTGISQQDPESDSQGQGNGLI | 4.82
YPHCTGISQQDPESDSQGQGNGLT | 5.13
YPHCTGISQQDPESDSQGQGNGLN | 5.06
YPHCTGISQQDPESDSQGQGNGLG | 4.82
YPHCTGISQQDPESDSQGQGNGLE | 5
YPHCTGISQQDPESDSQGQGNGLL | 4.77
YPHCTGISQQDPESDSQGQGNGLC | 4.73
